We go through one molecule from patent publication US20100278829A1, “DUAL INHIBITION OF IMMUNOPHILIN/CYCLOPHILIN FAMILY MEMBERS AND EMMPRIN IMMUNOGLOBULIN RECEPTOR SUPERFAMILY MEMBERS” (priority 2009, published 2010).

This test addresses T1, CypA (Homo sapiens, UniProt P62937).
T1 construct: CypA was purified as previously described; made in house; host or cells: E. coli BL21 (DE3)
The test is described as follows: NMR titration of 15N-CypA, binding isotherms. As to conditions: chemical shift changes, 25° C. How it is done: NMR sample preparation, spectroscopy, and data analysis. All NMR spectra were collected at 25° C. on a Varian 600-, 720- , 800-, or 900-MHz spectrometer in 50 mM NaPO4, pH 6.5, 150 mM NaCl, and 50 mM imidazole supplemented with 7% D2O. There were only modest changes to the resonance positions with imidazole present (data not shown), yet imidazole did increase the lifetime of each sample slightly and, thus, was maintained in all samples. Samples utilized for assignment purposes contained 0.5-1 mM protein, while all samples utilized for titration purposes contained 0.5 mM protein with the indicated final concentration of the titrant. All spectra were processed using NMRPipe software65 and analyzed using CCPNmr software.66 Unless otherwise noted, all pulse sequences were obtained from standard Varian Biopack libraries. Transverse relaxation optimized spectroscopy (i.e., TROSY-based) HSQC experiments were used only when noted.
NMR titration experiments were first conducted using 15N-CypA with unlabeled CD147, and chemical shift changes were only observed for extracellular recombinant CD147 constructs that included the membrane-proximal region of CD147 residues 206-214. […] However, both extracellular cyclophilin ligands of CD147, CypA and CypB, are known to readily traverse the membrane. […]

T1 sequence (P62937 whole entry): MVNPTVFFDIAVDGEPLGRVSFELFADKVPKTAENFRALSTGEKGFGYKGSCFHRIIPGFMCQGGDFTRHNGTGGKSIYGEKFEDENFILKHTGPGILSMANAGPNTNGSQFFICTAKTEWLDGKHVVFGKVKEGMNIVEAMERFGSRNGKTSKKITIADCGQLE

B1: CD147: extracellular recombinant CD147 constructs that include membrane-proximal residues 206-214 (protein, UniProt P35613 138-323, looked up)
extracellular domain: EPGTVFTTVEDLGSKILLTCSLNDSATEVTGHRWLKGGVVLKEDALPGQKTEFKVDSDDQWGEYSCVFLPEPMGTANIQLHGPPRVKAVKSSEHINEGETAMLVCKSESVPPVTDWAWYKITDSEDKALMNGSESRFFVSSSQGRSELHIENLNMEADPGQYRCNGTSSKGSDQAIITLRVRSHLA
modifications: extracellular domain
Take B1: the Kd – broadly, the concentration at which binding is half-saturated – was over 1000 µM.
